Laboratory results from US20230140293A1.
Where two headings read alike, the source gives them in different places.

Columns and labels:
[1] = target: CH505 M11 gp120 (HIV-1); assay: ELISA, gp120 on plate
[2] = target: CH505 M5 gp120 (HIV-1); assay: ELISA, gp120 on plate
[3] = target: CH505 transmitted/founder (TF) gp120 (HIV-1); assay: ELISA, gp120 on plate
[4] = target: CH505 w020.14 gp120 (HIV-1); assay: ELISA, gp120 on plate
[5] = target: CH505 w030.21 gp120 (HIV-1); assay: ELISA, gp120 on plate
[6] = target: CH505 w030.28 gp120 (HIV-1); assay: ELISA, gp120 on plate
[7] = target: CH505 w053.16 gp120 (HIV-1); assay: ELISA, gp120 on plate
[8] = target: CH505 w053.31 gp120 (HIV-1); assay: ELISA, gp120 on plate
[9] = target: CH505 w078.15 gp120 (HIV-1); assay: ELISA, gp120 on plate
[10] = target: CH505 w078.33 gp120 (HIV-1); assay: ELISA, gp120 on plate
[11] = target: CH505 w100.B6 gp120 (HIV-1); assay: ELISA, gp120 on plate
[12] = target: CH0505TF.G458Y Env, pseudotyped virus produced in 293S GnTI- cells (HIV-1); assay: cell-based or functional assay
[13] = target: HIV-1 426c.SM (N276D) Env on Env-pseudotyped virus produced in 293T cells (HIV-1); assay: cell-based or functional assay
[14] = target: HIV-1 Env 426c.DM (N460D.N463D), Env-pseudotyped virus produced in 293T cells (HIV-1 clade C strain 426c); assay: cell-based or functional assay
[15] = target: HIV-1 CH0505TF (CH505 transmitted/founder) Env on Env-pseudotyped virus produced in 293T cells (HIV-1); assay: cell-based or functional assay
[16] = target: HIV-1 CH0505TF Env on Env-pseudotyped virus produced in 293S/GnTI-/- cells (Man5-enrichment) (HIV-1); assay: cell-based or functional assay
[17] = target: HIV-1 CH0505TF.G458Y Env on Env-pseudotyped virus produced in 293S GnTI-/- cells (Man5-enrichment) (HIV-1); assay: cell-based or functional assay
[18] = target: HIV-1 CH0505TF.G458Y Env on Env-pseudotyped virus produced in 293T cells (HIV-1); assay: cell-based or functional assay
[19] = target: HIV-1 CH0505TF.N280D Env on Env-pseudotyped virus produced in 293S GnTI- cells (HIV-1); assay: cell-based or functional assay
[20] = target: HIV-1 CH0505TF.N280D Env on Env-pseudotyped virus produced in 293T cells (HIV-1); assay: cell-based or functional assay
[21] = target: HIV-1 CH0505TF.S365P Env on Env-pseudotyped virus produced in 293S GnTI- cells (HIV-1); assay: cell-based or functional assay
[22] = target: HIV-1 CH0505TF.S365P Env on Env-pseudotyped virus produced in 293T cells (HIV-1); assay: cell-based or functional assay
[23] = target: CH0505TF G458C Env, pseudotyped virus produced in 293S GnTI- cells (HIV-1); assay: cell-based or functional assay
[24] = target: CH0505TF G458D Env, pseudotyped virus produced in 293S GnTI- cells (HIV-1); assay: cell-based or functional assay
[25] = target: CH0505TF G458E Env, pseudotyped virus produced in 293S GnTI- cells (HIV-1); assay: cell-based or functional assay
[26] = target: CH0505TF G458F Env, pseudotyped virus produced in 293S GnTI- cells (HIV-1); assay: cell-based or functional assay
[27] = target: CH0505TF G458K Env, pseudotyped virus produced in 293S GnTI- cells (HIV-1); assay: cell-based or functional assay
[28] = target: CH0505TF G458L Env, pseudotyped virus produced in 293S GnTI- cells (HIV-1); assay: cell-based or functional assay
[29] = target: CH0505TF G458R Env, pseudotyped virus produced in 293S GnTI- cells (HIV-1); assay: cell-based or functional assay
[30] = target: CH0505TF G458S Env, pseudotyped virus produced in 293S GnTI- cells (HIV-1); assay: cell-based or functional assay
[31] = target: CH0505TF G458W Env, pseudotyped virus produced in 293S GnTI- cells (HIV-1); assay: cell-based or functional assay
[32] = target: CH0505TF G458Y.N280D Env, pseudotyped virus produced in 293S GnTI- cells (HIV-1); assay: cell-based or functional assay
[33] = target: CH0505TF.gly4.G458Y Env, pseudotyped virus produced in 293S GnTI- cells (HIV-1); assay: cell-based or functional assay
[34] = target: CH0505TF.gly4.G458Y Env, pseudotyped virus produced in 293T cells (HIV-1); assay: cell-based or functional assay
[35] = target: HIV-1 CH0505TF.G458Y Env on Env-pseudotyped virus produced in 293S GnTI-/- cells (Man5-enrichment) (HIV-1); assay: cell-based or functional assay; remark: listed apart in the source
[36] = target: HIV-1 CH0505TF.G458Y Env on Env-pseudotyped virus produced in 293T cells (HIV-1); assay: cell-based or functional assay; remark: listed apart in the source
[37] = target: CH505 M5 gp120 (HIV-1); assay: method not named in the legend (FIG. 59F); GMP M5 gp120

Substance	log AUC [1]	log AUC [2]	log AUC [4]	log AUC [6]	log AUC [8]	IC50 (µg/ml) in TZM-bl [12]	ID50/IC50 in TZM-bl [13]	IC50 (µg/ml) in TZM-bl [14]	IC50 (µg/ml) in TZM-bl [15]	IC50 (µg/ml) in TZM-bl [16]	IC50 (µg/ml) in TZM-bl [18]	IC50 (µg/ml) in TZM-bl [19]	IC50 (µg/ml) in TZM-bl [20]	IC50 (µg/ml) in TZM-bl [21]	IC50 (µg/ml) in TZM-bl [22]	further results
CH103 (antibody)	13.4 log AUC	9.8 log AUC	12.6 log AUC	12.8 log AUC	13.6 log AUC	0.44 µg/mL	> 40 µg/mL	6.1 µg/mL	1.9 µg/mL	0.57 µg/mL	5.8 µg/mL	0.24 µg/mL	1.2 µg/mL	1.7 µg/mL	> 50 µg/mL	log AUC [3]: 12.6 log AUC; log AUC [5]: 12.2 log AUC; log AUC [7]: 11.6 log AUC; log AUC [9]: 10.7 log AUC; log AUC [10]: 11.1 log AUC; log AUC [11]: 7.1 log AUC; IC50 (µg/ml) in TZM-bl [17]: 0.44 µg/mL
CH235 (antibody)	7.6 log AUC	11.4 log AUC	9.9 log AUC	6.7 log AUC	1.1 log AUC	< 0.02 µg/mL	> 50 µg/mL	> 50 µg/mL	0.3 µg/mL	0.03 µg/mL	0.1 µg/mL	3.4 µg/mL	> 25 µg/mL	0.02 µg/mL	0.6 µg/mL	IC50 (µg/ml) in TZM-bl cells [23]: 0.009 µg/mL; IC50 (µg/ml) in TZM-bl cells [24]: 0.011 µg/mL; IC50 (µg/ml) in TZM-bl cells [25]: 0.012 µg/mL; IC50 (µg/ml) in TZM-bl cells [26]: < 0.005 µg/mL; IC50 (µg/ml) in TZM-bl cells [27]: 0.022 µg/mL; IC50 (µg/ml) in TZM-bl cells [28]: 0.015 µg/mL; IC50 (µg/ml) in TZM-bl cells [29]: < 0.005 µg/mL; IC50 (µg/ml) in TZM-bl cells [30]: 0.005 µg/mL; IC50 (µg/ml) in TZM-bl cells [31]: < 0.005 µg/mL; IC50 (µg/ml) in TZM-bl cells [32]: 2.69 µg/mL; IC50 (µg/ml) in TZM-bl cells [12]: < 0.005 µg/mL; IC50 (µg/ml) in TZM-bl cells [33]: < 0.005 µg/mL; IC50 (µg/ml) in TZM-bl cells [34]: 0.064 µg/mL; IC50 (µg/ml) in TZM-bl [35]: < 0.02 µg/mL; IC50 (µg/ml) in TZM-bl [36]: 0.2 µg/mL; Kd [37]: 8 nM
